Reference: EP1536230A1, “Flow cytometric, particle-based binding assay” (Deutsches Rheuma-Forschungszentrum Berlin, priority 2003, dated 2005)
Where no end group is shown, it is not given here. The star is where a group is joined. Biotin = O=C1N[C@H]2[C@H](CS[C@H]2CCCCC(=O)*)N1

Key:
[1] = target: T1, Rekombinantes menschliches CaN (Homo sapiens, UniProt Q08209); experiment: Flow cytometric, particle-based binding assay: FITC-CaN bound via biotinylated peptide to streptavidin beads; details: FITC-CaN (25 nM), versus control without peptide; for mittlere Fluoreszenzintensität (Bindung von FITC-CaN über biotinyliertes Peptid an Beads): biot-VIVIT-Peptid (300 nM), Streptavidin-Beads (50000); for mittlere Fluoreszenzintensität (Bindung von FITC-CaN über NFAT-B-Peptid an Beads): biot-NFAT-B-Peptid (4µM)
T1 construct: made in house; host or cells: E. coli
Experimental: Der Assaypuffer war wie folgt zusammengesetzt: 25mM Tris/HCl, 3mM MgCl2, 1mM EGTA, 0,5mM DTT oder TCEP, pH 7,4. Wenn nicht anders angegeben, wurde der Assaypuffer noch mit 0,05% BSA (PAA laboratories) versetzt.
Rekombinantes menschliches CaN wurde in Boratpuffer aufgenommen und mit FITC (Sigma) in einem molaren Verhältnis von 1:12 für 1h auf Eis und vor Licht geschützt inkubiert. Das ungebundenen FITC wurde dann über eine PD10 Säule (Amersham-Pharmacia) abgetrennt.
NFAT-B Peptid (4 µM) für 10 min lichtgeschützt auf Eis inkubierte, wurden 50000 beads in 10 µl Asaypuffer pipettiert. Nach weiteren 10 min Inkubation wurde das Reaktionsgemisch (110 µl) im Durchflusszytometer "FacsCalibur" (BD Biosciences) gemessen. […] Assay vorgeschaltet. Dafür wurde 1 µl Inhibitor (in DMSO) zu FITC-CaN in Assaypuffer (94 µl) pipettiert und anschließend für 30 min lichtgeschützt auf Eis belassen. Die Auswertung der Meßdaten erfolgte mit der Software CellQuest (BD Biosciences).

FITC-Ovalbumin = target: T2, FITC-Ovalbumin (Gallus gallus, UniProt P01012); experiment: Flow cytometric, particle-based binding assay with control protein FITC-Ovalbumin (specificity); details: FITC-Ovalbumin (25 nM); biot-VIVIT-Peptid (300 nM)
T2 construct: purchased Sigma
T2 sequence (P01012 1-386): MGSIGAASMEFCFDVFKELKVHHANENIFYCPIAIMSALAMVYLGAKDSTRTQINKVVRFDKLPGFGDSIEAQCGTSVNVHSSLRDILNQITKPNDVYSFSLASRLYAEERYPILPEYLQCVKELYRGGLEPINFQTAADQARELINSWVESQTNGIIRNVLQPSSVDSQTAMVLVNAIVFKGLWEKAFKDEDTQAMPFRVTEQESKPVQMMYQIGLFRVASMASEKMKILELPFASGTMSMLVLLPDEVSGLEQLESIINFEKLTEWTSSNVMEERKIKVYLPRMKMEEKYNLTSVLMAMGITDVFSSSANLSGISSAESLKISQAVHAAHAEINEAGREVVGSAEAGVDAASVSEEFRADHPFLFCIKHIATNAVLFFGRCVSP

| Substance | mittlere Fluoreszenzintensität (Bindung von FITC-CaN über biotinyliertes Peptid an Beads) [1] | mittlere Fluoreszenzintensität (Bindung von FITC-CaN über biotinyliertes Peptid an Beads) ([1]; listed as biot-TIVIV-Peptid) | mittlere Fluoreszenzintensität (Bindung von FITC-CaN über NFAT-B-Peptid an Beads) ([1]; mit Ca2+/Calmodulin) | mittlere Fluoreszenzintensität (Bindung von FITC-CaN über NFAT-B-Peptid an Beads) ([1]; ohne Ca2+/Calmodulin) | Fluoreszenzintensität (Bindung des Kontrollproteins FITC-Ovalbumin) (FITC-Ovalbumin) |
| --- | --- | --- | --- | --- | --- |
| biotinyl-EEHPGTIVIVPHPGAMG (Biotin-EEHPGTIVIVPHPGAMG) [biot-TIVIV] | nicht mit biot-TIVIV eine erhöhte Fluoreszenzintensität | keine erhöhte Fluoreszenzintensität | – | – | – |
| KGGFCDQYLAVPQHPYQWAK [biot-NFAT-B-Peptid] | – | – | höhere mittlere Fluoreszenzintensität | höhere mittlere Fluoreszenzintensität | – |
| GGRRKRSESSKQQKPLE [AKAP79] | bindet | – | – | – | bindet |
